Reference: patent US20230037815A1 (CULLINAN THERAPEUTICS, published 2023)

T1: human CD19 (human, UniProt P15391 20-291, biotinylated in the Biacore assay of Table 11)
T1 construct: also called isolated CD19; Human CD19 Protein
T1 sequence (looked up): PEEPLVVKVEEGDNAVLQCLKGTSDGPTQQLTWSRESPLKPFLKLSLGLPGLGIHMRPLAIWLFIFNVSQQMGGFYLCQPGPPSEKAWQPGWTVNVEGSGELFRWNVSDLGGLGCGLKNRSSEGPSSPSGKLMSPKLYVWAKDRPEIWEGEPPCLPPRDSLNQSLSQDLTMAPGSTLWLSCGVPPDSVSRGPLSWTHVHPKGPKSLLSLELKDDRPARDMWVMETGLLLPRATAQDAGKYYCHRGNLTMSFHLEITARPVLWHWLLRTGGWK

T2: monomeric CD19 extracellular domain (UniProt P15391 20-291, limits assumed)
T2 construct: extracellular domain; also called monomeric CD19 protein
T2 sequence (looked up): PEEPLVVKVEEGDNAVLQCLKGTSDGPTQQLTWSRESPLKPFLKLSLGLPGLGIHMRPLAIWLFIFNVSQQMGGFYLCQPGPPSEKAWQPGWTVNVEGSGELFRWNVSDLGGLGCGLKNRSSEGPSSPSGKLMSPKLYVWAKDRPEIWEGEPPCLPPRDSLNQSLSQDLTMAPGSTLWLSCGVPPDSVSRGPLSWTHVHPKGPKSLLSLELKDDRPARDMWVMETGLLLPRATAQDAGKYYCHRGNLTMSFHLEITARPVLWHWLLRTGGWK

T3: dimeric CD19 extracellular domain fused with human IgG1 Fc (human, UniProt P15391 20-291, limits assumed)
T3 construct: extracellular domain; also called dimeric CD19 protein; not shown: human IgG1 Fc
T3 sequence (looked up): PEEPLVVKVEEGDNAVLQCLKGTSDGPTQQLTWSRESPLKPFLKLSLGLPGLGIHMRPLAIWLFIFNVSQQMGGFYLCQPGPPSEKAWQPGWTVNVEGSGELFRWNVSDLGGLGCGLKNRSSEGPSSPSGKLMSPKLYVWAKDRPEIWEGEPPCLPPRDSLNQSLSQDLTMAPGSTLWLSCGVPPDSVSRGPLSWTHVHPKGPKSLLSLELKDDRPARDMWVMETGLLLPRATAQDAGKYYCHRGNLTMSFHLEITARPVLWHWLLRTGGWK


How the values were obtained:
human CD19 [1] = molecular target: T1, human CD19; test: SPR Biacore 8K, captured biotinylated CD19, scFv analyte
Procedure: (§1) Additional kinetic analysis of the anti-CD19 VL-VH scFvs, with or without a disulfide bond introduced by Cys substitutions at position 44 of VH and position 100 of VL, was conducted by surface plasmon resonance (SPR). The scFv proteins were serially diluted and assessed at 25° C. in a HBS-EP+ running buffer system (10 mM HEPES pH 7.4, 150 mM NaCl, 3 mM EDTA, 0.05% Surfactant P20) using a Biacore 8K optical biosensor (Global Life Sciences Solutions USA, Marlborough, Mass.). The sample compartment was maintained at 10° C. for the duration of each experiment.
(§2) Each experiment cycle began with an injection (500 s at 2 μL/min) over flow cells 1 and 2 of a 1:20 solution of biotin CAPture reagent (Global Life Sciences Solutions USA) in running buffer. This was followed by an injection (300 s at 4.0 μL/min) of biotinylated CD-19 (40 nM) overflow cell 2. Upon capture of CD19 to the sensor surface, test scFvs (16.2 to 0.067 nM, 3-fold dilution in running buffer) was injected (300 s at 30 uL/min) over flow cells 1 and 2. The dissociation of the scFvs was monitored for a duration of 2564 s. Finally, an injection (90 s at 10 μL/min) of regeneration solution (6 M Guanidine-HCl in 0.25 M NaOH) overflow cells 1 and 2 was used to prepare the sensor surface for another cycle.

human CD19 [2] = molecular target: T1, human CD19; test: SPR Biacore 8K, captured biotinylated CD19, scFv with disulfide bond as analyte
Procedure: as §1, §2

[3] = molecular target: T2, monomeric CD19 extracellular domain; test: ForteBio instrument (called SPR in the text), monomeric CD19 extracellular domain; monomeric CD19 protein
Procedure: (§3) As noted above, some of the constructs produced contained an anti-CD19 scFv having the amino acid sequence set forth in SEQ ID NO: 9 or 18. The binding affinity of the two CD19 binding domains to CD19 were measured by SPR using a monomeric CD19 extracellular domain and a dimeric CD19 extracellular domain fused with human IgG1 Fc. Binding kinetic parameters were measured using a ForteBio instrument generally as previously described (see, Estep et al. (2013) MAbs, 5(2): 270-78).

[4] = molecular target: T3, dimeric CD19 extracellular domain fused …; test: ForteBio instrument (called SPR in the text), dimeric CD19 extracellular domain-human IgG1 Fc; dimeric CD19 extracellular domain fused with human IgG1 Fc
Procedure: as §3

human CD3 [5] = molecular target: human CD3 (human); test: method not given
human CD3 [6] = molecular target: human CD3 (human); test: BLI, Octet method of WO2018208864A1
human CD3 [7] = molecular target: human CD3 (human); test: SPR, BiaCore method of WO2018208864A1

Sequence of human CD3 (human) (chain, as listed by the source): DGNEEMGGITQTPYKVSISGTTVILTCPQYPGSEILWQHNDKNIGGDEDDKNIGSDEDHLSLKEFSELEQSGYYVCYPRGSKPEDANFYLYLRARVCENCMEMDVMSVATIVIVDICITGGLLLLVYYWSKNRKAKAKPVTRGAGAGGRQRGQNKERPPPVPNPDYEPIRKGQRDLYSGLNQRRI

Binder	Kd (human CD19 [1])	koff (human CD19 [1])	Kd (human CD19 [2])	koff (human CD19 [2])	further results
CNG-CD19-101 VL-VH scFv (scFv, scFv without the engineered disulfide) scFv: DIVMTQTPLSLSVTPGQPASISCKSSQSLETTTGTTYLNWYLQKPGQSPQLLIYRASKRFSGVPDRFSGSGSGTDFTLKISRVEAEDVGVYYCLQLLEDPYTFGQGTKLEIKGGGGSGGGGSGGGGSQVQLVQSGAEVKKPGASVKVSCKASGYDFTDYIMHWVRQAPGQGLEWMGYINPYNDGSKYTDKFQERVTMTSDTSISTAYMELSRLRSDDTAVYYCARGTYYYGPELFDYWGQGTTVTVSS	0.00673 nM	2e-05 s⁻¹			
CNG-CD19-103 VL-VH scFv with disulfide bond (scFv) DIVMTQTPLSLSVTPGQPASISCKSSQSLETATGTTYLNWYLQKPGQSPQLLIYRVSRRFSGVPDRFSGSGSGTDFTLKISRVEAEDVGVYYCLQLLEDPYSFGCGTKLEIKGGGGSGGGGSGGGGSQVQLVQSGAEVKKPGASVKVSCKASGYTFTDYIMHWVRQAPGQCLEWMGYINPYNDGSKYTEKFQGRVTMTSDTSISTAYMELSRLRSDDTAVYYCARGTYYYGPQLFDYWGQGTTVTVSS			0.0178 nM	4.85e-05 s⁻¹	
SEQ ID NO 9 (scFv, its limits are my reading; also called anti-CD19 scFv of tAb0027 to tAb0032) scFv: QVQLVQSGAEVKKPGASVKVSCKASGYTFTDYIMHWVRQAPGQGLEWMGYINPYNDGSKYTEKFQGRVTMTSDTSISTAYMELSRLRSDDTAVYYCARGTYYYGPQLFDYWGQGTTVTVSSGGGGSGGGGSGGGGSDIVMTQTPLSLSVTPGQPASISCKSSQSLETSTGTTYLNWYLQKPGQSPQLLIYRVSKRFSGVPDRFSGSGSGTDFTLKISRVEAEDVGVYYCLQLLEDPYTFGQGTKLEIK					Kd [3]: 7 nM; Kd [4]: 5 nM
SEQ ID NO 18 (scFv, its limits are my reading; also called anti-CD19 scFv of tAb0033 to tAb0038) scFv: QVQLQESGPGLVKPSQTLSLTCTVSGGSISTSGMGVGWIRQHPGKGLEWIGHIWWDDDKRYNPALKSRVTISVDTSKNQFSLKLSSVTAADTAVYYCARMELWSYYFDYWGQGTLVTVSSGGGGSGGGGSGGGGSEIVLTQSPATLSLSPGERATLSCSASSSVSYMHWYQQKPGQAPRLLIYDTSKLASGIPARFSGSGSGTDFTLTISSLEPEDFAVYYCFQGSVYPFTFGQGTKLEIKR					Kd [3]: 11 nM; Kd [4]: 15 nM
CNG-CD3-1 scFv construct (scFv) scFv: DIVMTQSPDSLAVSLGERATINCKSSQSLLNARTGKNYLAWYQQKPGQPPKLLIYWASTRESGVPDRFSGSGSGTDFTLTISSLQAEDVAVYYCKQSYSRRTFGGGTKVEIKGGGGSGGGGSGGGGSGGGGSQVQLVQSGAEVKKPGASVKVSCKASGFNIKDYYMHWVRQAPGQRLEWMGWIDLENANTIYDAKFQGRVTITRDTSASTAYMELSSLRSEDTAVYYCARDAYGRYFYDVWGQGTLVTVSS					Kd (human CD3 [5]): 1.6 nM; Kd (human CD3 [6]): 4.4 nM; Kd (human CD3 [7]): 1.9 nM
CNG-CD3-2 scFv construct (scFv) scFv: DIVMTQSPDSLAVSLGERATINCKSSQSLLNARTGKNYLAWYQQKPGQPPKLLIYWASTRESGVPDRFSGSGSGTDFTLTISSLQAEDVAVYYCKQSYSRRTFGGGTKVEIKGGGGSGGGGSGGGGSGGGGSQVQLVQSGAEVKKPGASVKVSCKASGFNIKDYYMHWVRQAPGQRLEWMGWIDLENANTIYDAKFQGRVTITRDTSASTAYMELSSLRSEDTAVYYCARDQYGRYFYDVWGQGTLVTVSS					Kd (human CD3 [6]): 27 nM; Kd (human CD3 [7]): 16 nM
CNG-CD3-3 scFv construct (scFv) scFv: DIVMTQSPDSLAVSLGERATINCKSSQSLLNARTGKNYLAWYQQKPGQPPKLLIYWASTRESGVPDRFSGSGSGTDFTLTISSLQAEDVAVYYCKQSYSLRTFGGGTKVEIKGGGGSGGGGSGGGGSGGGGSQVQLVQSGAEVKKPGASVKVSCKASGFNIKDYYMHWVRQAPGQRLEWMGWIDLEEGNTIYDAKFQGRVTITRDTSASTAYMELSSLRSEDTAVYYCARDAYGRYFYDVWGQGTLVTVSS					Kd (human CD3 [6]): 54 nM; Kd (human CD3 [7]): 26 nM
CNG-CD19-707 VL-VH scFv (scFv) scFv: EIVLTQSPATLSLSPGERATLSCSASSSVGYMHWYQQKPGQAPRLLIYDTSKLASGIPARFSGSGSGTDFTLTISSLEPEDFAVYYCFQGSVYPFTFGQGTKLEIKGGGGSGGGGSGGGGSQVQLQESGPGLVKPSQTLSLTCTVSGGSISTSTMGVGWIRQHPGKGLEWIGFIWWDDDKRYNPNLKSRVTMSVDTSKNQFSLKLSSVTAADTAVYYCARMELWSYYFDPWGQGTLVTVSS	0.0122 nM	2e-05 s⁻¹			
CNG-CD19-710 VL-VH scFv (scFv) scFv: EIVLTQSPATLSLSPGERATLSCSASSSFSYMHWYQQKPGQAPRLLIYDTSKLASGIPARFSGSGSGTDFTLTISSLEPEDFAVYYCFQGSVYPFTFGQGTKLEIKGGGGSGGGGSGGGGSQVQLQESGPGLVKPSQTLSLTCTVSGVSISTSSMGVGWIRQHPGKGLEWIGHAWWDDDKRYNPALKSRVTISVDTSKNQFSLKLSSVTAADTAVYYCARMELWSYYFDPWGQGTLVTVSS	0.0218 nM	2e-05 s⁻¹			
CNG-CD19-701 VL-VH scFv (scFv) scFv: EIVLTQSPATLSLSPGERATLSCSASSSVGYMHWYQQKPGQAPRLLIYDTSKLASGIPARFSGSGSGTDFTLTISSLEPEDFAVYYCFQGSVYPFTFGQGTKLEIKGGGGSGGGGSGGGGSQVQLQESGPGLVKPSQTLSLTCTVSGGSISTSTMGVGWIRQHPGKGLEWIGFIWWDDDKRYNPNLKSRVTMSVDTSKNQFSLKLSSVTAADTAVYYCARMELWSYYFDYWGQGTLVTVSS	0.0148 nM	2e-05 s⁻¹			

Continued, in another order:

Kd (human CD19 [1])	koff (human CD19 [1])	Kd (human CD19 [2])	koff (human CD19 [2])	Binder	further results
		0.0139 nM	4.88e-05 s⁻¹	CNG-CD19-101 VL-VH scFv with disulfide bond (scFv, Cys at position 44 of VH and 100 of VL already in the entry; also called scFv with Cys substitutions) scFv: DIVMTQTPLSLSVTPGQPASISCKSSQSLETTTGTTYLNWYLQKPGQSPQLLIYRASKRFSGVPDRFSGSGSGTDFTLKISRVEAEDVGVYYCLQLLEDPYTFGCGTKLEIKGGGGSGGGGSGGGGSQVQLVQSGAEVKKPGASVKVSCKASGYDFTDYIMHWVRQAPGQCLEWMGYINPYNDGSKYTDKFQERVTMTSDTSISTAYMELSRLRSDDTAVYYCARGTYYYGPELFDYWGQGTTVTVSS	
0.00991 nM	2.41e-05 s⁻¹			CNG-CD19-103 VL-VH scFv (scFv) scFv: DIVMTQTPLSLSVTPGQPASISCKSSQSLETATGTTYLNWYLQKPGQSPQLLIYRVSRRFSGVPDRFSGSGSGTDFTLKISRVEAEDVGVYYCLQLLEDPYSFGQGTKLEIKGGGGSGGGGSGGGGSQVQLVQSGAEVKKPGASVKVSCKASGYTFTDYIMHWVRQAPGQGLEWMGYINPYNDGSKYTEKFQGRVTMTSDTSISTAYMELSRLRSDDTAVYYCARGTYYYGPQLFDYWGQGTTVTVSS	
		0.0117 nM	2e-05 s⁻¹	CNG-CD19-707 VL-VH scFv with disulfide bond (scFv) EIVLTQSPATLSLSPGERATLSCSASSSVGYMHWYQQKPGQAPRLLIYDTSKLASGIPARFSGSGSGTDFTLTISSLEPEDFAVYYCFQGSVYPFTFGCGTKLEIKGGGGSGGGGSGGGGSQVQLQESGPGLVKPSQTLSLTCTVSGGSISTSTMGVGWIRQHPGKCLEWIGFIWWDDDKRYNPNLKSRVTMSVDTSKNQFSLKLSSVTAADTAVYYCARMELWSYYFDPWGQGTLVTVSS	
		0.0141 nM	2e-05 s⁻¹	CNG-CD19-701 VL-VH scFv with disulfide bond (scFv) EIVLTQSPATLSLSPGERATLSCSASSSVGYMHWYQQKPGQAPRLLIYDTSKLASGIPARFSGSGSGTDFTLTISSLEPEDFAVYYCFQGSVYPFTFGCGTKLEIKGGGGSGGGGSGGGGSQVQLQESGPGLVKPSQTLSLTCTVSGGSISTSTMGVGWIRQHPGKCLEWIGFIWWDDDKRYNPNLKSRVTMSVDTSKNQFSLKLSSVTAADTAVYYCARMELWSYYFDYWGQGTLVTVSS	
		0.0213 nM	2.54e-05 s⁻¹	CNG-CD19-710 VL-VH scFv with disulfide bond (scFv) EIVLTQSPATLSLSPGERATLSCSASSSFSYMHWYQQKPGQAPRLLIYDTSKLASGIPARFSGSGSGTDFTLTISSLEPEDFAVYYCFQGSVYPFTFGCGTKLEIKGGGGSGGGGSGGGGSQVQLQESGPGLVKPSQTLSLTCTVSGVSISTSSMGVGWIRQHPGKCLEWIGHAWWDDDKRYNPALKSRVTISVDTSKNQFSLKLSSVTAADTAVYYCARMELWSYYFDPWGQGTLVTVSS	
